# Where “and” joins values, the source holds several entries; their conditions need not be identical. Equal entries are not always repeated. No end group written: not given here.
# Tests used:
# [1] = Single dose intravenous toxicity study in the mouse / maximum tolerable dose; assay type: in vivo; conditions: 125 mg/kg single i.v. dose
# Method: The study, to determine the maximum tolerable dose in mice, should be initiated with a sighting study to select the appropriate dose level for the main study. For example, six dose levels could be investigated using one male and one female mouse at each dose level.
# On the basis of any signs of toxicity, the selected dose is administered to five male and five female mice as a single intravenous dose in a dose volume of 10 ml/kg. The dose should be administered slowly in the tail vein (e.g., 20 seconds per injection using a 1 ml syringe with a 25G hypodermic needle). All animals should be observed for any signs of toxicity after 15 minutes, 1 hour, 3 hours, 6 hours and 24 hours after administration.
# A single intravenous dose was administered slowly in the tail vein (20 seconds per injection) using a 1 ml syringe with a 25G hypodermic needle to 5 male and 5 female mice. […] Body weight was recorded on Day 1, 2, 8 and 15. At termination of the study gross necropsy examination of all animals was carried out.
# S. pneumoniae D39 = test: Survival after peritoneal infection with S. pneumoniae D39; assay type: in vivo; conditions: groups of eight mice, vehicle 0/8
# Method: (§1) Three different pneumococcal strains were employed in this study (6A, D39 and 68034). Three mice per sampling point were inoculated with a specific S. pneumoniae i.p., and were treated 1 hour later with a single dose of 10 mg/kg Plectasin. Peritoneal wash was sampled for microbial counts prior to treatment (T=0), and at T=2 and T=5 hrs after. The colony counts are listed below for all three strains.
# Treatment with Plectasin s.c. 10 mg/kg was initiated one hour after inoculation as described in Example 4A above. The following dosing regimens were investigated in groups of eight mice: vehicle treated, Plectasin once daily (OD) for one day, twice daily (BID) for one day or BID for two days. […] The survival fraction of the vehicle treated control group was 0/8 mice (P<0.0002).
# S. pneumoniae strain D39 [2] = test: Treatment of pneumococcal pneumonia, colony counts in lung homogenates; assay type: in vivo, mice; conditions: for Colony counts in lung homogenates: one day after treatment, individual mice
# Method: Six to seven mice per sampling point (12 in the no-treatment group) were inoculated with S. pneumoniae (data only shown for strain D39) via the nasopharynx, and 24 hrs later the animals received Plectasin 10 mg/kg or penicillin 30 mg/kg.
# [3] = Systemic availability: in vivo kinetics, serum concentration by LCMSMS; design: species or system NMRI female mice; conditions: for Serum concentration: 14 mg/kg single dose, individual mice; for Maximum observed mean concentration / Time of maximum observed mean concentration: serum
# Method: The in vivo kinetics of plectasin was investigated in NMRI female mice, 25-30 gram (Harlan Scandinavia Aps), after a single 14 mg/kg dose, administered by either intravenous, subcutaneous or intraperitoneal routes. Plectasin concentrations in serum samples were determined 5, 15, 30, 60, 120 and 180 minutes after dosing, using two mice at each time point. At each time point, urine was collected, then mice were anaesthetized with CO2 and blood collected. The blood samples were centrifuged and serum collected. The concentration of plectasin in serum and urine were determined by LCMSMS.
# The maximum observed mean concentrations for i.v., s.c. and i.p. dosing were: 95 mg/L after 5 min., 55 and 34 mg/L after 30 min., respectively.
# S. pneumoniae 68034 = test: Survival after peritoneal infection with S. pneumoniae 68034; assay type: in vivo; conditions: s.c. 10 mg/kg BID for one or two days, groups of eight mice; vehicle 0/8, P<0.0002
# Method: as §1
# Treatment with Plectasin s.c. 10 mg/kg was initiated one hour after inoculation as described in Example 4A above. The following dosing regimens were investigated in groups of eight mice: vehicle treatment, Plectasin BID for one or two days. The survival fraction at seven days post-infection was 6/8 for Plectasin treated mice and 0/8 for vehicle treated mice (P<0.0002).
# S. pneumoniae strain 6A = test: Treatment of pneumococcal peritoneal infection, colony counts in peritoneal wash, strain 6A; assay type: in vivo, mice; conditions: for Colony counts: peritoneal wash, individual mice
# Method: as §1
# S. pneumoniae strain D39 [4] = test: Treatment of pneumococcal peritoneal infection, colony counts in peritoneal wash, strain D39; assay type: in vivo, mice; conditions: for Colony counts: strain D39, peritoneal wash, individual mice
# Method: as §1
# [5] = Stability in human serum; residual activity by radial diffusion assay with Staphylococcus carnosus; assay type: in vitro ADME; conditions: 37° C.; for Activity (%) 10% serum / Activity (%) 90% serum: 100 mg/L; for Activity (%) 10% serum: 10% human serum; for Activity (%) 90% serum: 90% human serum
# Method: To assess the stability of the defensins in human serum, according to the invention, a solution of 100 mg/L of a defensin in fresh normal human serum is incubated at 37 degrees Celsius for 0, 1, 3, 6 and 24 hours. Residual activity is measured by performing radial diffusion assays with a sensitive indicator organism (e.g., Staphylococcus carnosus or E. coli); by performing a quantification by HPLC, LCMSMS; or by performing various ELISA techniques well known to a person skilled in the art.
# To assess serum stability, Plectasin (100 mg/L) was incubated at 37° C. in 10% and 90% fresh normal human serum for 0, 1, 3, 6 & 24 hours. Residual activities were measured by performing radial diffusion assays with Staphylococcus carnosus.
# [6] = test system: S. pneumoniae strain 68034; test: Treatment of pneumococcal peritoneal infection, colony counts in peritoneal wash, strain 68034; assay type: in vivo, mice; conditions: for Colony counts: strain 68034, peritoneal wash, individual mice
# Method: as §1
# [7] = 2 hours after single dose 10 mg/kg, 10 mg/kg
# [8] = 5 hours after single dose 10 mg/kg, 10 mg/kg
substance,measurement,setting,value
"Plectasin: Defensin shown as amino acids 1 to 40 of SEQ ID NO: 2 in international patent application WO 03/044049; defensin antimicrobial peptide (GFGCNGPWDEDDMQCHNHCKSIKGYKGGYCAKGGFVCKCY; ends and bridges not checked; cysteine pairing not given here; UniProt Q53I06 56-95, looked up)",Finding at the injection site,"[1]; 10 ml/kg, 15 minutes after treatment, 5 male and 5 female mice",all animals had a discoloration at the injection site
same,Other signs of toxicity,"[1]; 10 ml/kg, observed over 14 days",No other signs of toxicity were observed
same,Gross necropsy,[1]; at termination of the study,no abnormalities
same,Survival over the 7-day study period,S. pneumoniae D39; s.c. 10 mg/kg BID for two days,All mice treated with Plectasin survived
same,Survival over the 7-day study period,S. pneumoniae D39; s.c. 10 mg/kg once daily (OD) for one day,All mice treated with Plectasin survived
same,Survival over the 7-day study period,S. pneumoniae D39; s.c. 10 mg/kg twice daily (BID) for one day,except for one mouse
same,Colony counts compared to no treatment,"S. pneumoniae strain D39 [2]; strain D39, 10 mg/kg",significant reduction
same,Colony counts in lung homogenates,"S. pneumoniae strain D39 [2]; strain D39, 10 mg/kg given 24 hrs after inoculation",3E1 (2×) and 5.25E3 and 6.75E2 and 9.75E4 and 2.25E3 and 1.5E2
same,Terminal half-life,"[3]; 14 mg/kg, mice, estimated",49 to 54 min
same,Serum concentration,"[3]; IP, 5 min, 14 mg/kg",9400 ng/mL and 7200 ng/mL
same,Serum concentration,"[3]; IP, 15 min, 14 mg/kg",26000 ng/mL and 31600 ng/mL
same,Serum concentration,"[3]; IP, 30 min, 14 mg/kg",32500 ng/mL and 35400 ng/mL
same,Serum concentration,"[3]; IP, 60 min, 14 mg/kg",27700 ng/mL and 14300 ng/mL
same,Serum concentration,"[3]; IP, 120 min, 14 mg/kg",10900 ng/mL and 20300 ng/mL
same,Serum concentration,"[3]; IP, 180 min, 14 mg/kg",2600 ng/mL and 5600 ng/mL
same,Serum concentration,"[3]; IV, 5 min, 14 mg/kg",92100 ng/mL and 97900 ng/mL
same,Serum concentration,"[3]; IV, 15 min, 14 mg/kg",58800 ng/mL and 58100 ng/mL
same,Serum concentration,"[3]; IV, 30 min, 14 mg/kg",35700 ng/mL and 27300 ng/mL
same,Serum concentration,"[3]; IV, 60 min, 14 mg/kg",14900 ng/mL and 15600 ng/mL
same,Serum concentration,"[3]; IV, 120 min, 14 mg/kg",5300 ng/mL and 4900 ng/mL
same,Serum concentration,"[3]; IV, 180 min, 14 mg/kg",2300 ng/mL and 3500 ng/mL
same,Serum concentration,"[3]; SC, 5 min, 14 mg/kg",20300 ng/mL and 25400 ng/mL
same,Serum concentration,"[3]; SC, 15 min, 14 mg/kg",49400 ng/mL and 56600 ng/mL
same,Serum concentration,"[3]; SC, 30 min, 14 mg/kg",50300 ng/mL and 60000 ng/mL
same,Serum concentration,"[3]; SC, 60 min, 14 mg/kg",24800 ng/mL and 27200 ng/mL
same,Serum concentration,"[3]; SC, 120 min",29800 ng/mL
same,Serum concentration,"[3]; SC, 180 min, 14 mg/kg",4600 ng/mL and 7200 ng/mL
same,Maximum observed mean concentration,"[3]; i.p., 14 mg/kg",34 mg/L
same,Time of maximum observed mean concentration,"[3]; i.p., 14 mg/kg",30 min
same,Concentration-time behavior,"[3]; i.v. bolus administration, WinNonlin",two-compartment behavior
same,Maximum observed mean concentration,"[3]; i.v., 14 mg/kg",95 mg/L
same,Time of maximum observed mean concentration,"[3]; i.v., 14 mg/kg",5 min
same,Maximum observed mean concentration,"[3]; s.c., 14 mg/kg",55 mg/L
same,Time of maximum observed mean concentration,"[3]; s.c., 14 mg/kg",30 min
same,Survival fraction at seven days post-infection,S. pneumoniae 68034,6/8
same,Colony counts compared to vehicle treated mice,"S. pneumoniae strain 6A; 10 mg/kg, P<0.0001",significant lower
same,Colony counts,S. pneumoniae strain 6A; 0 hours (prior to treatment),1.1E6 and 1.55E6 and 1E6
same,Colony counts,S. pneumoniae strain 6A; [7],3.5E5 (2×) and 1.78E5
same,Colony counts,S. pneumoniae strain 6A; [8],2.13E4 and 1.43E3 and 1.45E3
same,Colony counts compared to vehicle treated mice,"S. pneumoniae strain D39 [4]; strain D39, 10 mg/kg, P<0.0001",significant lower
same,Colony counts,S. pneumoniae strain D39 [4]; 0 hours (prior to treatment),3.25E6 and 1.8E6 (2×)
same,Colony counts,S. pneumoniae strain D39 [4]; [7],2.75E4 and 1.1E4 and 2E4
same,Colony counts,S. pneumoniae strain D39 [4]; [8],2.5E2 and 3.5E2 and 1E2
same,Activity (%) 10% serum,[5]; 0 hours,100%
same,Activity (%) 10% serum,[5]; 1 hour,˜100%
same,Activity (%) 10% serum,[5]; 3 hours,˜100%
same,Activity (%) 10% serum,[5]; 6 hours,˜100%
same,Activity (%) 10% serum,[5]; 24 hours,˜100%
same,Activity (%) 90% serum,[5]; 0 hours,100%
same,Activity (%) 90% serum,[5]; 1 hour,˜100%
same,Activity (%) 90% serum,[5]; 3 hours,˜100%
same,Activity (%) 90% serum,[5]; 6 hours,˜100%
same,Activity (%) 90% serum,[5]; 24 hours,˜100%
same,Residual activity (in words),[5]; after 24 hours of incubation in 90% human serum,Full activity was retained
same,Colony counts compared to vehicle treated mice,"[6]; strain 68034, 10 mg/kg, P<0.0001",significant lower
same,Colony counts,[6]; 0 hours (prior to treatment),3E5 and 5.5E5 and 3.5E5
same,Colony counts,[6]; [7],3.25E4 (2×) and 1.5E4
same,Colony counts,[6]; [8],4E2 and 1E2 and 7.5E1
penicillin [reference compound],Colony counts compared to no treatment,"S. pneumoniae strain D39 [2]; strain D39, 30 mg/kg",significant reduction
same,Colony counts in lung homogenates,"S. pneumoniae strain D39 [2]; strain D39, 30 mg/kg given 24 hrs after inoculation",7.5E1 (3×) and 4.5E3 and 2.25E4 and 4.89E5
